The source of these data is patent publication US20240294646A1.

Usually Kd stands for the concentration at which binding is half-saturated. A higher Kd goes with weaker binding.

In test [1] the target is FcγRIIb (UniProt P31994). The test is described as follows: SPR (Protocol 1), one-armed antibody captured on HER2, receptor as analyte; fold over wild-type.
Target sequence in this assay (P31994 43-217 limits assumed): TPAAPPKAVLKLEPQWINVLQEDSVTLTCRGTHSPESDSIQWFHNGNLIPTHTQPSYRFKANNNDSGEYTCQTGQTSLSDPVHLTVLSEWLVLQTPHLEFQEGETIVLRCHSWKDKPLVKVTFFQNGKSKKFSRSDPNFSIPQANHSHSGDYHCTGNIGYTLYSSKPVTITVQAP
The target of test [2] is FcγRIIaR (UniProt P12318). The description is as above.
Test [3] concerns the target FcγRIIb (UniProt P31994). The test can be described thus: SPR (Protocol 1); IIb-Fold over IIaR-Fold.
Target sequence in this assay (P31994 43-217 limits assumed): as above
For test [4], the target named is FcγRIIb (UniProt P31994). The test is described as follows: SPR; ratio of IIb-fold to IIaR-fold, FcγRIIaR as comparison receptor. For orientation: SPR reads the build-up and loss of mass on a sensor chip optically.
Target sequence in this assay (P31994 43-217): as the sequence (P31994 43-217 limits assumed) above
Test [5] has as its target FcγRIIb (UniProt P31994). The test is described as follows: SPR; trastuzumab FSA variant against FSA WT v21653.
Target sequence in this assay (P31994 43-217): as the sequence (P31994 43-217 limits assumed) above
Test [6] concerns the target FcγRIIaR (UniProt P12318). The test is described as follows: SPR; trastuzumab FSA variant against FSA WT v21653.
In a further test the target is C1q (human) (UniProt P02745). The test is described as follows: ELISA; antibody coated, human C1q added, signal as % of WT.
Sequence of C1q (human) (P02745 23-245 limits assumed, chain 1 of 3): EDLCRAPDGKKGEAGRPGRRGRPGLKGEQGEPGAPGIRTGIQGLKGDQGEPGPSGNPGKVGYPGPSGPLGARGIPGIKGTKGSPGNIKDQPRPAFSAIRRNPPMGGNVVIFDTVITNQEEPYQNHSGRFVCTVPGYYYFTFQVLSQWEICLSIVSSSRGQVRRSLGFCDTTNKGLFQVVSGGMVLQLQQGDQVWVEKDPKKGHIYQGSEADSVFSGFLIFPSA
Sequence of C1q (human) (P02746 28-253 limits assumed, chain 2 of 3, further chain): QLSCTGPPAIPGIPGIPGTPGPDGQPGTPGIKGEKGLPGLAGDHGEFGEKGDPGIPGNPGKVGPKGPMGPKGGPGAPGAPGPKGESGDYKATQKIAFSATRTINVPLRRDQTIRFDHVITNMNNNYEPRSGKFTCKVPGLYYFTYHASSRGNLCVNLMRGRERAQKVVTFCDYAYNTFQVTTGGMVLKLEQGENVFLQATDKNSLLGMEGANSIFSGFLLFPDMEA
Sequence of C1q (human) (P02747 29-245 limits assumed, chain 3 of 3, further chain): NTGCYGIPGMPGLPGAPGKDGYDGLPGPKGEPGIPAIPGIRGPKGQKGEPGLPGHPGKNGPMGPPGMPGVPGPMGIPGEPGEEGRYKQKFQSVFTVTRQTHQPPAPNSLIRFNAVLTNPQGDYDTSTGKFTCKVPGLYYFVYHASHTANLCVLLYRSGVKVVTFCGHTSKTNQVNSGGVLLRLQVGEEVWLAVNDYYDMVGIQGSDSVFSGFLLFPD
Test [7] has as its target FcγRIIb, soluble extracellular domain (UniProt P31994). The test is described as follows: SPR (Biacore 4000, Protocol 2): antibody captured on immobilised HER2, soluble receptor as analyte.
For test [8], the target named is FcγRIIaR, soluble extracellular domain (UniProt P12318). Described as above.
Sequence of FcγRIIaR, soluble extracellular domain (P12318 34-217): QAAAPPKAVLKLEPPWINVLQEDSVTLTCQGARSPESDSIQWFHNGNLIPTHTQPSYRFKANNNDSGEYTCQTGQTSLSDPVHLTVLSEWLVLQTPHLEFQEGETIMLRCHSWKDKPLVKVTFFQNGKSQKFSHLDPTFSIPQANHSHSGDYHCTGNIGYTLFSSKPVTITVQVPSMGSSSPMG

Sequence of FcγRIIb, soluble extracellular domain (P31994 43-217): as the sequence (P31994 43-217 limits assumed) above
Sequence of FcγRIIaR (P12318 34-217): as the sequence (P12318 34-217) above

Take “variant 16570, one-armed trastuzumab antibody (Scaffold 2), chain B E269K_L234F”: the IIb-Fold (fold affinity over wild-type) in the test with FcγRIIb [1] was found to be 0.37 fold. Besides, in the test with FcγRIIaR [2], the IIaR-Fold (fold affinity over wild-type) came out at 0.11 fold. The IIb/IIaR Selectivity with FcγRIIb [3] came to 3.35.

Take “variant 16492, one-armed trastuzumab antibody (Scaffold 2), chain A E269K, chain B G236N”: the IIb-Fold (fold affinity over wild-type) with FcγRIIb [1] is 0.13 fold. In addition, in the test with FcγRIIaR [2], the IIaR-Fold (fold affinity over wild-type) stood at 0.07 fold. The same substance showed an IIb/IIaR Selectivity with FcγRIIb [3] of 1.83.

On to “variant 16576, one-armed trastuzumab antibody (Scaffold 2), chain B E269K_A327G_A330S_P331S_L234F_H268Q_K274Q”, for which the IIb-Fold (fold affinity over wild-type) in the test with FcγRIIb [1] stood at 0.21 fold. Further, the IIaR-Fold (fold affinity over wild-type) in the test with FcγRIIaR [2] worked out at 0.11 fold. Besides, the IIb/IIaR Selectivity with FcγRIIb [3] turned out to be 1.89.

With “variant 16491, one-armed trastuzumab antibody (Scaffold 2), chain B E269K_G236N”, in the test with FcγRIIb [1], the IIb-Fold (fold affinity over wild-type) is 0.24 fold. In the test with FcγRIIaR [2], the IIaR-Fold (fold affinity over wild-type) is 0.1 fold. In addition, the IIb/IIaR Selectivity with FcγRIIb [3] is 2.48.

As for “variant 16531, one-armed trastuzumab antibody (Scaffold 2), chain B E269K_S267I”, the IIb-Fold (fold affinity over wild-type) with FcγRIIb [1] was found to be 0.27 fold. Moreover, in the test with FcγRIIaR [2], the IIaR-Fold (fold affinity over wild-type) worked out at 0.19 fold. Further, the IIb/IIaR Selectivity in the test with FcγRIIb [3] is 1.45.

Regarding “variant 16571, one-armed trastuzumab antibody (Scaffold 2), chain A E269K, chain B L234F”, in the test with FcγRIIb [1], the IIb-Fold (fold affinity over wild-type) is 0.4 fold. Besides, in the test with FcγRIIaR [2], the IIaR-Fold (fold affinity over wild-type) came to 0.42 fold. Also, in the test with FcγRIIb [3], the IIb/IIaR Selectivity was 0.97.

On to “variant 16488, one-armed trastuzumab antibody (Scaffold 2), chain B E269K_G236D”, for which the IIb-Fold (fold affinity over wild-type) with FcγRIIb [1] turned out to be 0.16 fold. Besides, the IIaR-Fold (fold affinity over wild-type) in the test with FcγRIIaR [2] worked out at 0.17 fold. Also, the IIb/IIaR Selectivity with FcγRIIb [3] came out at 0.91.

Turning to “Variant 32259 (trastuzumab FSA; chain A A237N_strat1, chain B G330*K_strat1) (antibody)”, in the test with FcγRIIb [4], the IIb Selectivity (IIb-Fold/IIaR-Fold) came out at 33. This substance registered an IIb-fold (fold change in affinity over wild-type) with FcγRIIb [5] of 452 fold over WT. Besides, the IIaR-fold (fold change in affinity over wild-type) with FcγRIIaR [6] came out at 14 fold over WT. The substance further returned a C1q Binding (% WT) with C1q (human) of 192 % WT.

In the case of “Variant 32262 (trastuzumab FSA; chain A L234T_strat1, chain B G330*K_strat1) (antibody)”, in the test with FcγRIIb [4], the IIb Selectivity (IIb-Fold/IIaR-Fold) was 31. Further, in the test with FcγRIIb [5], the IIb-fold (fold change in affinity over wild-type) worked out at 697 fold over WT. This substance also returned an IIaR-fold (fold change in affinity over wild-type) with FcγRIIaR [6] of 22 fold over WT. The C1q Binding (% WT) with C1q (human) was 210 % WT.

With “Variant 32264 (trastuzumab FSA; chain A L235D_strat1, chain B G330*K_strat1) (antibody)”, the IIb Selectivity (IIb-Fold/IIaR-Fold) in the test with FcγRIIb [4] amounted to 33. The IIb-fold (fold change in affinity over wild-type) with FcγRIIb [5] was determined as 557 fold over WT. Moreover, in the test with FcγRIIaR [6], the IIaR-fold (fold change in affinity over wild-type) was determined as 17 fold over WT. Moreover, the C1q Binding (% WT) with C1q (human) was 146 % WT.

As for “Variant 32265 (trastuzumab FSA; chain A S239A_strat1, chain B G330*K_strat1) (antibody)”, in the test with FcγRIIb [4], the IIb Selectivity (IIb-Fold/IIaR-Fold) is 31. For the same substance, the IIb-fold (fold change in affinity over wild-type) in the test with FcγRIIb [5] was 1120 fold over WT. The substance also displayed an IIaR-fold (fold change in affinity over wild-type) in the test with FcγRIIaR [6] of 36 fold over WT. This substance registered a C1q Binding (% WT) with C1q (human) of 224 % WT.

Turning to “Variant 26722 (A_D270N_strat2), one-armed trastuzumab antibody with heterodimeric IgG1 Fc”, the Kd is 21 nM in test [7] and 77 nM in test [8].

Regarding “Variant 26729 (A_P271A_strat2), one-armed trastuzumab antibody with heterodimeric IgG1 Fc”, the Kd amounted to 34 nM in test [7] and 93 nM in test [8].

In the case of “Variant 32279 (trastuzumab FSA; chain A S267K_strat2, chain B G237L_strat2) (antibody)”, the IIb Selectivity (IIb-Fold/IIaR-Fold) with FcγRIIb [4] was determined as 19. In the test with FcγRIIb [5], this substance registered an IIb-fold (fold change in affinity over wild-type) of 53 fold over WT. Besides, in the test with FcγRIIaR [6], the IIaR-fold (fold change in affinity over wild-type) is 3 fold over WT. The C1q Binding (% WT) with C1q (human) was determined as 1 % WT.

In the case of “variant 16577, one-armed trastuzumab antibody (Scaffold 2), chain A E269K, chain B A327G_A330S_P331S_L234F_H268Q_K274Q”, in the test with FcγRIIb [1], the IIb-Fold (fold affinity over wild-type) worked out at 1.03 fold. Further, in the test with FcγRIIaR [2], the IIaR-Fold (fold affinity over wild-type) was 0.82 fold. Moreover, in the test with FcγRIIb [3], the IIb/IIaR Selectivity came to 1.26.

For “Variant 26728 (A_P271G_strat2), one-armed trastuzumab antibody with heterodimeric IgG1 Fc”, the Kd in test [7] amounted to 22 nM; in test [8], 64 nM.

For “Variant 32276 (trastuzumab FSA; chain A P329V_strat2, chain B G237L_strat2) (antibody)”, the IIb Selectivity (IIb-Fold/IIaR-Fold) with FcγRIIb [4] was determined as 24. The substance further displayed an IIb-fold (fold change in affinity over wild-type) in the test with FcγRIIb [5] of 94 fold over WT. The IIaR-fold (fold change in affinity over wild-type) in the test with FcγRIIaR [6] amounted to 4 fold over WT. Moreover, the C1q Binding (% WT) in the test with C1q (human) came to 3 % WT.

Consider “Variant 32258 (trastuzumab FSA; chain A A237L_strat1, chain B G330*K_strat1) (antibody)”, for which, in the test with FcγRIIb [4], the IIb Selectivity (IIb-Fold/IIaR-Fold) turned out to be 44. In addition, the IIb-fold (fold change in affinity over wild-type) with FcγRIIb [5] came to 476 fold over WT. In the test with FcγRIIaR [6], this substance gave an IIaR-fold (fold change in affinity over wild-type) of 11 fold over WT. For the same substance, the C1q Binding (% WT) with C1q (human) is 201 % WT.

Turning to “variant 16549, one-armed trastuzumab antibody (Scaffold 2), chain B E269K_L234D”, the IIb-Fold (fold affinity over wild-type) with FcγRIIb [1] is 0.35 fold. Besides, the IIaR-Fold (fold affinity over wild-type) in the test with FcγRIIaR [2] was 0.19 fold. The substance further yielded an IIb/IIaR Selectivity with FcγRIIb [3] of 1.83.

For “variant 16489, one-armed trastuzumab antibody (Scaffold 2), chain A E269K, chain B G236D”, the IIb-Fold (fold affinity over wild-type) in the test with FcγRIIb [1] stood at 0.85 fold. In the test with FcγRIIaR [2], the IIaR-Fold (fold affinity over wild-type) is 0.41 fold. The substance further came in with an IIb/IIaR Selectivity with FcγRIIb [3] of 2.1.

As for “Variant 26721 (A_D270Q_strat2), one-armed trastuzumab antibody with heterodimeric IgG1 Fc”, the Kd in [7] came out at 28 nM; in [8], 87 nM.

For the substance “Variant 26735 (A_P271Y_strat2), one-armed trastuzumab antibody with heterodimeric IgG1 Fc”, the results for the Kd in test [7] and in test [8] were 35 nM and 110 nM, respectively.

Regarding “variant 16550, one-armed trastuzumab antibody (Scaffold 2), chain A E269K, chain B L234D”, the IIb-Fold (fold affinity over wild-type) with FcγRIIb [1] stood at 0.79 fold. In the test with FcγRIIaR [2], the IIaR-Fold (fold affinity over wild-type) came to 0.63 fold. In the test with FcγRIIb [3], this substance yielded an IIb/IIaR Selectivity of 1.25.

For the substance “Variant 26723 (A_D270E_strat2), one-armed trastuzumab antibody with heterodimeric IgG1 Fc”, the dissociation constant (Kd) amounted to 13 nM in test [7] and 42 nM in test [8].

On to “Variant 26727 (A_D270P_strat2), one-armed trastuzumab antibody with heterodimeric IgG1 Fc”, for which the Kd in test [7] was 88 nM; in [8] it was 180 nM.

In the case of “Variant 26734 (A_P271W_strat2), one-armed trastuzumab antibody with heterodimeric IgG1 Fc”, the Kd in [7] was 28 nM; in test [8], 72 nM.

On to “variant 16532, one-armed trastuzumab antibody (Scaffold 2), chain A E269K, chain B S267I”, for which the IIb-Fold (fold affinity over wild-type) with FcγRIIb [1] stood at 0.95 fold. The IIaR-Fold (fold affinity over wild-type) in the test with FcγRIIaR [2] was determined as 0.51 fold. This substance had an IIb/IIaR Selectivity with FcγRIIb [3] of 1.84.
